Test results taken from the nanobody polyreactivity screen of Harvey et al. (2022).

Assay: yeast display, Sf9 membrane polyspecificity reagent, FACS + sequencing; frameworks hold sequencing errors
Procedure, shortened: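 Nanobodies came from a synthetic yeast display library in Saccharomyces cerevisiae BJ5465, induced with galactose for 36–48 hours and stained for 1 hour at 4 °C with 10% biotinylated, detergent-solubilized Sf9 membrane reagent. Cells were enriched on streptavidin microbeads and then FACS-sorted, with low and high (top ~1%) gates set on anti-HA fluorescence for expression and streptavidin fluorescence for reagent binding. Each polyreactivity label reflects the gate a clone came from. Genes were amplified by colony PCR, sequenced by MiSeq 2 × 250 and filtered by CDR length.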
With “QDHLVESGGGLVQAGGSLRLSCAASGISFSVNAMGWSRQAPGKERELVASISSGGSTNYADSVTGRFTISRDNAKNTVYLQMNSLNPEDTAVSYCAAGYWNDFDWGQGTQVTVSS” the “polyreactivity (PSR sort gate)” value was “low polyreactivity”.
In the case of “QDHLVESGGGLVQAGGSLRLSCAASGSTFGWYAMGWYRHAPGKERELVAVITRGGSTYYADSVKGHFTITLDNAKNTVYLQMNSLKPEDTAVYFCAARYRLPPYYYWGHGTQVTVSS”, the “polyreactivity (PSR sort gate)” value is reported as “high polyreactivity”.
With “QDHLVESGGGLVQAGGSLRLSCAASRRTLLRYAMGWYRQAPGKERELVAAISSSGGRTYYADSVKGRFTISRDNAKNTVYLQMNSLKPEDTAVYYCAAKSSYVGHDYWGQGTQVTVSS” the “polyreactivity (PSR sort gate)” value was “high polyreactivity”.
For “QDHLVESGGGLVQAGGSLRLSCSASGSNFRSYAMGWYRQAPGKERELVAAITWSGGRTYYADSVKGRFTISRDNAKNTVYLQMNSLKPEDTAVYYCNAVYLAYGGAYWGQGTQVTVSS”, the “polyreactivity (PSR sort gate)” value was “high polyreactivity”.
For “QDHLVESGGGLVQAGGSLRLTCAASGSIFADYTMGWYRQATGKEMELVAAINNRDGGTYYADSVKGRFTISRDNAKNTVYLEMNSLKPEDTAVYYCTKQVDLSGQWDFWYGYYTYDYWGQGTQLTVSS”, the “polyreactivity (PSR sort gate)” value was “low polyreactivity”.
For “QDHLVESGGGLVQAGGSLRVSCAASGLVYGQYAMGWYRPAPGKERELVAAINWSGGRTYYADSVKGRFTISRDNAKNTVYLQMNSLKPEDTAVYYCAADDPQDQDYENNYWGQGTQVNVSS”, the “polyreactivity (PSR sort gate)” value was “high polyreactivity”.
In the case of “QDKLVESGGGLVQAGGSLRLICAASGFTFNRYALGWYRKAPGKERELVAGITGGGSTKYADSVKGRFTISRDNAKNTVYLQMNSLKPEDTSVYYCNASGYSYGARYYYWGQGTQVTVSS”, the “polyreactivity (PSR sort gate)” value is reported as “high polyreactivity”.
For “QDLLVESGAGLVQAGGSVRLSCAASGRIVYTYAMAWYRQAPGIERELVAVISSGGSTYYADSVKGRFTNSRDNAKNTVYLQMNSLTPEDTAVYYCAAYGTKWGRGFYITGYGYWGQGTQVTVSS”, the “polyreactivity (PSR sort gate)” value was “low polyreactivity”.
In the case of “QDLLVESGGGLVQAGGSLRLSCAASGYTFGNNAMGWYRQAPGKERELVATISGGGRTKYADSVKGRFTISRDNAKNTVYLQMYSLKPEDTAVYYCNVVQTYYRGSYIYIKYGYWGQGTQVTVSS”, the “polyreactivity (PSR sort gate)” value is reported as “high polyreactivity”.
With “QDQHVESAGGVVQTGGSLRLSGAATGSIFGEYAMGWYRQPPGQEREFVADITRSDGSTYYADSVKGRFTISRDHAKNTVYFQMNSMKPEYTAVYYCAADSVLDRPVLYLGPWYLGDYWGQGTLVTVSS” the “polyreactivity (PSR sort gate)” value was “low polyreactivity”.
For “QDQHVESGGGLDQAGGSLRLSCAASGRTIRSYAMGGYRPAPRKESELVAAISSRGGNTYYADSVKGRFTISRDNAKYTVYLQMNSLKPEDTAVYYSNRVRYGVPLIVGDDYWGQGTQVTVSS”, the “polyreactivity (PSR sort gate)” value was “high polyreactivity”.
In the case of “QDQHVESGGGLVQAGCSLRLSCAASGSIFSWNAMGWYRQAPGKERELVAAIRWDTGSTYYADSVKVRFTISRDKAKNTVYLQMNRLKPEDTAVYYCAADLFDCQLIDGFAVVTYGYWGQGTQVTVSS”, the “polyreactivity (PSR sort gate)” value is reported as “low polyreactivity”.
For “QDQHVESGGGLVQAGGRLRLICAASGGNFTKNAMGWYRQAPGKERELVAGISRTGGNTYYADSVKGRFTISRDNAKNTVYLQMNSLKPDDTAVYYCNALYGGPHRLRYDYWGQGTQVTVSS”, the “polyreactivity (PSR sort gate)” value was “low polyreactivity”.
In the case of “QDQHVESGGGLVQAGGSLRLICAASGSIFIANAMGWYRQAPGKERELVAAITLNGGSTYYADSVKGRFTISRDNAKNTVYLQMNSLKPEDTAVYYCAADWVWVAPQYWFVEYDYWGQGTQVTVSS”, the “polyreactivity (PSR sort gate)” value is reported as “low polyreactivity”.
In the case of “QDQHVESGGGLVQAGGSLRLSCAAPGITFYPYDMGWYRQAPGKERELVASISRSGGSTYYADSVKGRFTISRDNAKNTVYLQMNSLKPEDTAVYYCNAYSTRGMYSWGQGTQVTVSS”, the “polyreactivity (PSR sort gate)” value is reported as “high polyreactivity”.
In the case of “QDQHVESGGGLVQAGGSLRLSCAASGFTFSDYALGWYRQAPGKERELVAAISTRGSSTYYADSVKGRFTISRDNAKNTVYLHLNSLKQDYTAVSYCNAVGSYSGYYYWGQGTHVTVSS”, the “polyreactivity (PSR sort gate)” value is reported as “high polyreactivity”.
For “QDQHVESGGGLVQAGGSLRLSCAASGRIFFHNAMGWSRQAPGKERELVAAIRSSTGSTYYADSVKGRFTISRDNAKNTVYLQMNSLKPEDTAVYYCARYAYANAYYGKSYWMGYWGQGTQVTVSS”, the “polyreactivity (PSR sort gate)” value was “high polyreactivity”.
For “QDQHVESGGGLVQAGGSLRLSCAASGSTFPTNAMGWYRQAPGKERELVADITIRGGGTSYADSVKGRFTISRDNAKNTVYLQMNSLKPEDTEVYYCARSKSTELKRLLYDSWGQGTQVTVSS”, the “polyreactivity (PSR sort gate)” value was “low polyreactivity”.
For “QDQHVESGGGLVQAGGSLRLSCAATGNIFRYYTMGWYRQAPRKERELVAAISWNGGSTYYADSVKGRFTISRDNAKNTVYLQMNSLKPEDTAVYYCNAVQYYEFDYWGQGTQVTVSS”, the “polyreactivity (PSR sort gate)” value was “low polyreactivity”.
With “QDQHVESGGGLVQAGGSLRLSCDASGRTFRKNAMGSYRQARGKERELVAAISWSGDSTYYADSVKGRFTISRDNAKNTVYLQMNSLKPEDSAVYYCAADSRYHFYYWRQGTQVTVSS” the “polyreactivity (PSR sort gate)” value was “high polyreactivity”.
In the case of “QDQHVESGGGLVQAGGSLRLSIAASASTIGFNAMGWYRQAPGKERELVAAITFSGGTTYYADSVKGRFTISRDNAKNTVYFQMNSLKPEDTAVYYCNADWWYQYSGPFAPWGEDYWGQGTQVTVSS”, the “polyreactivity (PSR sort gate)” value is reported as “low polyreactivity”.
With “QDQHVESVGGLVQAGGRLRLSSAASGLIFFDSPMVSDRQAPGKERELVAAISTTGGSTYYADSVKGRCTISRDNAKNSVYLEMNSLKPEDTAVYYCNARFVHHSWGTNYYWGQGTQVTVSS” the “polyreactivity (PSR sort gate)” value was “high polyreactivity”.
In the case of “QDQHVESVGGLVQAGGSLRLSCAASGRTFAWNAMGWYRQAPGKERELVAVITSGGSTNYADSVKGRFTISRDNAKNTVYLQMKSLKPEDTALYYCAAGHSWVYGYDYWGQGTQVTVSS”, the “polyreactivity (PSR sort gate)” value is reported as “low polyreactivity”.
In the case of “QDQLEDSGGGLVQAGGSLRLICAASGSIFDTYAMGWYRQAPGKERELVATISWSGDSTYYADSVKGRFTISRDNAKNTVYLQLNSLKPEDTAVYYCAATTDALVGRPRYDYWGQGTQVTVSS”, the “polyreactivity (PSR sort gate)” value is reported as “low polyreactivity”.
For “QDQLGESGGGLVQAGGSLRLSCAASGRSFTYYTMGWYRQAPGKERELVATINNSGGSTYYADSVKGRFTISRDNAKNTVYLQMNSLKPEDTAVYYCAKVLGLPYGAPRSIFVEWEMDYWGQGTQVTVSS”, the “polyreactivity (PSR sort gate)” value was “low polyreactivity”.
In the case of “QDQLLESGGGLVQAGGSLRISCAASGRTIIRNAMGWSRQAPGKERELVAAITSGGSTNYADSVKGRFTISRDNAKNTVYLQMNSLKPEDTAVYYCAARYGSQYKHRFYYWGQGTQVTVSS”, the “polyreactivity (PSR sort gate)” value is reported as “high polyreactivity”.
For “QDQLQESGGGLVQAGGSLRLSCAASGRIIYGYAMGWYRQAPGKERELVAAITATYYADSVKGRFTISRDNAKNTVYLQMNSLKPEDTAVYYCNAYLSPKQPLSPPDPTFEGGYWGQGTQVTVSS”, the “polyreactivity (PSR sort gate)” value was “low polyreactivity”.
For “QDQLVDSGGGLVQAGGSLRLSCAASGIIFYRYAMGWYRQAPGKERELVATITASGGRTYYADSVKGRFTISRDNAKNTVYLQMNSLKPEDTAVYYCAAVSSYRLYSDYGYWRQGTQVTVSS”, the “polyreactivity (PSR sort gate)” value was “high polyreactivity”.
For “QDQLVDSGGGLVQAGGSLRLSCAASGLSFDLYDMGWYRQAPGKERELVAAIDWSATRTYYADSVKGRFTISRDNAKNTVYLQMNSLKPEDPAVYYCNAEAVYEYWIYDYWGQGTQVTLSS”, the “polyreactivity (PSR sort gate)” value was “high polyreactivity”.
For “QDQLVDSGGGLVQAGGSLRLSSAASGFSYGGYAMGWYRQAPGKERELVAAISSGGGTTYADSVKGRFTISRDNAKYTVYLQMNSLKPEDTAVYYCAAVTRDYRNDRRRQRCYYWGQGTQVTVSS”, the “polyreactivity (PSR sort gate)” value was “high polyreactivity”.
In the case of “QDQLVEAGGGLVQAGGSLRLSCAASGFTFYPYAMGWYRQAPGKERELVAAISYSGDRTYYADSVKGRFTISRDNAKNTVYLQMNSLKPEDTAVYDCVSAVHPGKYYYWGQGTQVTESS”, the “polyreactivity (PSR sort gate)” value is reported as “high polyreactivity”.
In the case of “QDQLVESAGGLVQAGGSLRLSCAASGRIFSRYAMGWYRQAPGKERELVAAITQSGTSTYYADSVKGRFTISRDIAKNTVYLQMNSLKAEDTAVYYCNAYSQYRYDYWGQGTQVTVSS”, the “polyreactivity (PSR sort gate)” value is reported as “low polyreactivity”.
For “QDQLVESAGGLVQAGGSLRLSCAASGSIFTSNAMGWYRQAPGKETELVAAITSSGGSTYYADSVKGRFTISRDNAKNTVYVQMNSLKPEVTAVYYCAGAKFDLSFWLYYWGQGTQVTVSS”, the “polyreactivity (PSR sort gate)” value was “low polyreactivity”.
With “QDQLVESAGGLVQAGGSLRLSCAASGSTFVRNAMGWYRQEPGKERELVAAISVDGSSTYYADSVKGRFTISRDIAKNTVYLQMNSLKPEVTAVYYCNADWDYRDFYAITYDFWGQGTQVTVSS” the “polyreactivity (PSR sort gate)” value was “low polyreactivity”.
With “QDQLVESAGGLVQAGGSLRLSCAATASTFHLYAMGWYRQAAGKERELVASIRWSGGSTYYADSVKGRFTISRDNAKNTVYLQMNSLKPEDTAVYYCASEAVPYWSWGRPMYYWGQGTQVTVSS” the “polyreactivity (PSR sort gate)” value was “high polyreactivity”.
With “QDQLVESAGGLVQAGGSLSLSCAASGNIFVYYAMGWYRQAPGKERELVAAITSDVSTYYADSVKGRFTISRDNAKNTVYLQMNSLKPEDTAVYYCATTGYGSYVIYGGQGTQVTVSS” the “polyreactivity (PSR sort gate)” value was “low polyreactivity”.
For “QDQLVESCGGLVQAGGSLRLSCASSGIIFVNYAMGWYRQAPGKERELVAAITTSGGSTYYADSVKGRFTISRDNAKNTVYLQMNCLKPEDTAVYYCAKISSLFKHVVRYDYWGQGTQVTVSS”, the “polyreactivity (PSR sort gate)” value was “low polyreactivity”.
With “QDQLVESGAGLVQAGRSLRLSCAASGSIFRWYAMGWYRQAPGKERELVAAISTSGGNTYYADSVKGRFTISRDNAKNTVYLEMKSLIPEDTAVYYCNALWYRSLYYRYDYWGQVTQVTVSS” the “polyreactivity (PSR sort gate)” value was “high polyreactivity”.
With “QDQLVESGGALVQAGGSLRLSCAASGFTYYGNAMGWYRQAPGKERELVAAISSSGGITYYADSVKGRFTISRDNAKNTVYLQMNSLKPEDTAVYYCAAVQGTPDYEYDSWGQGTQVTVSS” the “polyreactivity (PSR sort gate)” value was “low polyreactivity”.
For “QDQLVESGGCLVQAGGSLRLSCAASGSIFTDNVMGWYRQATGKERELVAAITSTGGNTYYADSVKGRFTISRDNAKNTVYLQMNSLKREDTAVYYCNKDVARYPYGKFDYWGQGTQVTVSS”, the “polyreactivity (PSR sort gate)” value was “low polyreactivity”.
In the case of “QDQLVESGGCLVQAGGSLRLSCAAYGSTFYRYTMGWYRQAPGKERELVAAISRSGGRTYYADSVKGRFTLSRDNAKNTVFVQINSLKPEDTAVYYCNAEIASSAVQAQEGDYWGQGTQVTVSS”, the “polyreactivity (PSR sort gate)” value is reported as “high polyreactivity”.
In the case of “QDQLVESGGGIVQAGGSLRLSCAASGFIFSTNAMGWYRQAPGKERELVAAITGRGTNTYYADSVKGRFTISRDNAKNTVYLQMNSLKPEDTAVYYCAADNKDSEDDYWGQGTQVTVSS”, the “polyreactivity (PSR sort gate)” value is reported as “high polyreactivity”.
In the case of “QDQLVESGGGIVQAGGSLRLSCAASGFIFYTYAMGCYRQAPGKESELVAAISSRGTRTYYADSVKGRFTISRDNAKNTVFLQMNSLKPEDTAVYYCAAVSYSYEYPSFDMGYWGQGTQVTVSS”, the “polyreactivity (PSR sort gate)” value is reported as “high polyreactivity”.
